Results as given in publication PMC6355003, “New interfaces on MiD51 for Drp1 recruitment and regulation” (PLoS ONE, 2019).

How the values were obtained:
Conditions in all cases: both partners purified
Drp1 A395D/AAAA = molecular target: T1, Drp1 A395D/AAAA (UniProt O00429-4 1-699, A395D | 401GPRP404→AAAA); test: pull-down; GST-fused MiD51^133-463 or mutants on Glutathione Sepharose 4B, equal molar Drp1, 3 h at 4°C; 20 mM HEPES pH 7.5, 150 mM NaCl, 1% Triton X-100, 1 mM MgCl2; SDS-PAGE, Coomassie staining; no nucleotide
T1 construct: Drp1, GenBank NM_005690; source: E. coli Rosseta (DE3), purified (Ni-NTA, anion exchange, size-exclusion chromatography)

Drp1 G350D/A395D = molecular target: T2, Drp1 G350D/A395D (UniProt O00429-4 1-699, G350D | A395D); test: as above
T2 construct: Drp1, GenBank NM_005690; source: E. coli Rosseta (DE3), purified (Ni-NTA, anion exchange, size-exclusion chromatography)

Drp1 G350D/AAAA = molecular target: T3, Drp1 G350D/AAAA (UniProt O00429-4 1-699, G350D | 401GPRP404→AAAA); test: as above
T3 construct: Drp1, GenBank NM_005690; source: E. coli Rosseta (DE3), purified (Ni-NTA, anion exchange, size-exclusion chromatography)

Drp1 S600D = molecular target: T4, Drp1 S600D (UniProt O00429-4 1-699, S600D); test: as above
T4 construct: Drp1, GenBank NM_005690; S600 is S637 in Drp1 isoform 1 (printed); also called phosphorylation site mutant (related to S637 in Drp1 isoform 1); source: E. coli Rosseta (DE3), purified (Ni-NTA, anion exchange, size-exclusion chromatography)

Drp1 A395D = molecular target: T5, Drp1 A395D (UniProt O00429-4 1-699, A395D); test: as above
T5 construct: Drp1, GenBank NM_005690; source: E. coli Rosseta (DE3), purified (Ni-NTA, anion exchange, size-exclusion chromatography)

Drp1 G350D = molecular target: T6, Drp1 G350D (UniProt O00429-4 1-699, G350D); test: as above
T6 construct: Drp1, GenBank NM_005690; source: E. coli Rosseta (DE3), purified (Ni-NTA, anion exchange, size-exclusion chromatography)

Drp1 S579D = molecular target: T7, Drp1 S579D (UniProt O00429-4 1-699, S579D); test: as above
T7 construct: Drp1, GenBank NM_005690; S579 is S616 in Drp1 isoform 1 (printed); also called phosphorylation site mutant (related to S616 in Drp1 isoform 1); source: E. coli Rosseta (DE3), purified (Ni-NTA, anion exchange, size-exclusion chromatography)

Drp1 K38A = molecular target: T8, Drp1 K38A (UniProt O00429-4 1-699, K38A); test: as above
T8 construct: Drp1, GenBank NM_005690; also called K38A mutant of Drp1; dominant-negative GTPase mutation K38A; source: E. coli Rosseta (DE3), purified (Ni-NTA, anion exchange, size-exclusion chromatography)

[1] = molecular target: T9, Drp1 AAAA mutant (401GPRP404→AAAA) (UniProt O00429-4 1-699, 401GPRP404→AAAA); test: pull-down; GST-MiD51^133-463 on Glutathione Sepharose; MiD51 and Drp1 mixed first, then no nucleotide (apo) or 1 mM GTP, GMP-PNP, GDP-AlFx or GDP in assay and wash buffer; 20 mM HEPES pH 7.5, 150 mM NaCl, 1% Triton X-100, 1 mM MgCl2; Coomassie staining
T9 construct: Drp1, GenBank NM_005690; source: E. coli Rosseta (DE3), purified (Ni-NTA, anion exchange, size-exclusion chromatography)

[2] = molecular target: T10, Drp1 (dynamin-related protein Drp1), wild type (UniProt O00429-4 1-699); test: as above
T10 construct: Drp1, GenBank NM_005690; also called wild-type Drp1; source: E. coli Rosseta (DE3), purified (Ni-NTA, anion exchange, size-exclusion chromatography)

Measured: binding result

B1: GST-MiD51^133-463, wild type (domain or fragment, human, UniProt Q9NQG6-1 133-463, looked up)
chain: MSLQEKLLTYYRNRAAIPAGEQARAKQAAVDICAELRSFLRAKLPDMPLRDMYLSGSLYDDLQVVTADHIQLIVPLVLEQNLWSCIPGEDTIMNVPGFFLVRRENPEYFPRGSSYWDRCVVGGYLSPKTVADTFEKVVAGSINWPAIGSLLDYVIRPAPPPEALTLEVQYERDKHLFIDFLPSVTLGDTVLVAKPHRLAQYDNLWRLSLRPAETARLRALDQADSGCRSLCLKILKAICKSTPALGHLTASQLTNVILHLAQEEADWSPDMLADRFLQALRGLISYLEAGVLPSALNPKVNLFAELTPEEIDELGYTLYCSLSEPEVLLQT
notes: also called cytosolic domain of MiD51; source: E. coli BL21 (DE3), purified (Glutathione Sepharose, eluted with reduced glutathione)
binds: all assays above
